Experimental data published in the supplement of paper PMC10126150.
± gives the standard deviation of the averaged measurements.

Each sequence was assayed on ATP (assay: switch fluorescence ratio, 500 uM ATP over buffer (Cy3 cluster intensity, sum of 5 cycles each) (fold (ratio)); higher = stronger signal-on switching upon ATP binding; sequences stand for … in TCGTCGGCAGCGTCAGATGTGTATAAGAGACAGTTTTTTTTTTTTTTTTTTTTTTTTT…TC). Conditions: aptamer strand: ATP DNA aptamer (quencher-CACCTGGGGGAGTATTGCGGAGGAAGG + anchor), 100 nM annealed; ATP concentration: 500 uM.
In short: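 Five buffer/ATP imaging cycles were run on Cy3-labelled switching-strand clusters on a modified Illumina MiSeq flow-cell, with NaOH stripping and re-annealing between cycles. In each cycle, clusters annealed to 100 nM quencher-labelled ATP aptamer were imaged in selection buffer, then after 15 min with 500 uM ATP at 22 °C. Per cluster, the fluorescence ratio is summed target-cycle over summed buffer-cycle Cy3 intensity, averaged per switch-domain sequence. Only clusters within 100-1000 RFU were kept.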
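Also: ATP exposure 15 min at 22 °C before imaging.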

| Sequence | switch fluorescence ratio |
| --- | --- |
| CAGAAGCGGA | 1.19 ± 0.051 |
| CAGGGTGAAT | 0.9909 ± 0.0056 |
| TACATACTCT | 1.29 ± 0.023 |
| TCTTTTTGGT | 0.992 ± 0.018 |
| TCGGGGGTTT | 1 ± 0.038 |
| ATCAGGAAAA | 1.02 ± 0.071 |
| AGAATGATTG | 0.988 ± 0.017 |
| GCGAGGGCAA | 1.72 ± 0.052 |
| AATTACTTTT | 1.02 ± 0.02 |
| TTGTGTGGCA | 1.02 ± 0.054 |
| AACTATAATG | 0.997 ± 0.044 |
| AAGGTGTGCG | 1.02 ± 0.024 |
| ACATTCCAGT | 1.14 ± 0.15 |
| AGCTTTCTAT | 0.976 ± 0.011 |
| CACGTTACTG | 1.66 ± 0.12 |
| AAGGACGGTG | 1.0045 ± 0.00079 |
| CGGCGTGAGC | 0.993 ± 0.067 |
| GAGGATGGCA | 0.9807 ± 0.0061 |
| TTATAAGTAT | 1 ± 0.031 |
| CGTAAAAGAC | 1.23 ± 0.19 |
| CTGTGGGCTG | 0.989 ± 0.04 |
| ATGTAGTTGG | 1 ± 0.016 |
| TCCGAGCCTT | 2.08 ± 0.12 |

| Sequence | switch fluorescence ratio |
| --- | --- |
| TAGGGGGGAA | 1 ± 0.023 |
| AACTAGAGGG | 0.98 ± 0.017 |
| ATAAGTATGA | 1.01 ± 0.034 |
| TTTTACGACA | 1.15 ± 0.014 |
| CATTTACCAT | 1.03 ± 0.014 |
| TTCCGTTGAA | 1.05 ± 0.044 |
| TTTTTATGGT | 0.984 ± 0.027 |
| AAGGGAGAAC | 0.986 ± 0.0019 |
| TGGGAAAAGG | 1.16 ± 0.31 |
| GGGGGAAAG | 1 ± 0.025 |
| TTGTTTTTGG | 0.987 ± 0.032 |
| CGGCTCCTCA | 1.08 ± 0.045 |
| TAAAAAGAGC | 0.984 ± 0.022 |
| TGAATGATC | 1 ± 0.043 |
| CCTGGGTGAA | 1.2 ± 0.03 |
| AATAGAGGGG | 0.9926 ± 0.0071 |
| ATCCGAGTCA | 1.07 ± 0.014 |
| TTTTGGATGT | 0.984 ± 0.048 |
| CGTAGGAGG | 0.9784 ± 0.0044 |
| CTGGGGTGTG | 1.01 ± 0.039 |
| TTTTGACTTA | 1.04 ± 0.034 |
| TCCTCTTAAG | 1.09 ± 0.03 |
| TTAATGGTAT | 1.02 ± 0.021 |

| Sequence | switch fluorescence ratio |
| --- | --- |
| ATATTGGGGA | 1.01 ± 0.025 |
| CGGGCTAACA | 0.972 ± 0.017 |
| GGGCGAAGGG | 0.987 ± 0.032 |
| CTAGGTGGAC | 1.01 ± 0.012 |
| TGAAGCGGCG | 0.942 ± 0.023 |
| CGTGTAGGAG | 0.99262 ± 0.00056 |
| TTTGGTGGGG | 1.01 ± 0.029 |
| CCTGGCTCAT | 1.06 ± 0.037 |
| AGTACGGATA | 1.03 ± 0.074 |
| AAGTGTCCCG | 0.994 ± 0.032 |
| CCTTGAGGGC | 1.34 ± 0.38 |
| TATAAATGGG | 1 ± 0.0042 |
| TTATTGCGGA | 0.994 ± 0.022 |
| CGAGGGGTTA | 1.01 ± 0.022 |
| TGGGGATCGG | 0.973 ± 0.025 |
| TTTTTCGTTG | 0.997 ± 0.049 |
| ATATGGTCTA | 0.999 ± 0.053 |
| AGCTTGGGAA | 0.9627 ± 0.0063 |
| GAGGGGAGTA | 1 ± 0.033 |
| TTTGCCAGAC | 1.23 ± 0.24 |
| TTCTTGAAG | 0.966 ± 0.02 |
| TGTTGGGGTT | 1.01 ± 0.018 |
| ATTATGTGTC | 0.959 ± 0.048 |

| Sequence | switch fluorescence ratio |
| --- | --- |
| TGTTGGTGTC | 0.987 ± 0.07 |
| TGTTGTAATG | 0.9974 ± 0.0033 |
| AAGTTGGTGT | 1.02 ± 0.043 |
| TGAGGTATCT | 1.007 ± 0.0091 |
| CGGCGTGTAT | 1 ± 0.055 |
| GGGTTTTCTT | 0.961 ± 0.031 |
| GACTAAGACT | 1.01 ± 0.026 |
| GTCGTGTCTG | 1.004 ± 0.0065 |
| TCTAGACTCA | 1.18 ± 0.29 |
| GAAAATGCAT | 0.99 ± 0.013 |
| ATACGGGGAT | 1.014 ± 0.0093 |
| GTTCGAAAAA | 0.961 ± 0.09 |
| TGCTGTGGAA | 1.011 ± 0.0096 |
| GGTTTGTTTG | 0.999 ± 0.025 |
| CAATTCGTCT | 0.994 ± 0.075 |
| AGCTCTGGCC | 0.961 ± 0.04 |
| AGTCAAAGGA | 1.012 ± 0.0051 |
| AGGGTTGGCA | 0.998 ± 0.029 |
| GTAATTAATT | 0.978 ± 0.025 |
| TGGGCTTCGT | 0.994 ± 0.038 |
| TAAAGAGTCG | 1.02 ± 0.063 |
| TTGGGAGGCT | 1 ± 0.044 |
| AACGAATTAG | 1.04 ± 0.038 |

| Sequence | switch fluorescence ratio |
| --- | --- |
| TTTTAATCGA | 1.02 ± 0.043 |
| GAATGGGGCC | 1.01 ± 0.035 |
| TGGTTCTGAC | 1.03 ± 0.038 |
| TATGGAGTGG | 1 ± 0.039 |
| AGGACGAGGG | 0.983 ± 0.013 |
| TTGCTCTCTG | 1.03 ± 0.031 |
| TTCAAATTGG | 1 ± 0.043 |
| ATGAGTCTTT | 0.9801 ± 0.0079 |
| TATTGACGGG | 0.9956 ± 0.0023 |
| CCGGGCGTCG | 1.26 ± 0.31 |
| ATAATCGGCA | 1.01 ± 0.054 |
| GAAGGGGGGC | 1.05 ± 0.18 |
| GTTTATTTCT | 1.02 ± 0.049 |
| AGTGGTGGCT | 1.04 ± 0.018 |
| GGTGTTGTCT | 1.031 ± 0.0061 |
| GCAGATTTGG | 0.978 ± 0.026 |
| TTTTAATTTG | 0.994 ± 0.04 |
| GCGTGGGCGA | 1.03 ± 0.045 |
| AGTACCAATG | 1.03 ± 0.039 |
| CGAACAGGTT | 1.04 ± 0.02 |
| AATTCAACAC | 1.05 ± 0.038 |
| TTTGAAAATT | 0.99 ± 0.06 |
| CTTGGTCTGA | 0.994 ± 0.024 |

| Sequence | switch fluorescence ratio |
| --- | --- |
| CAAGCTCTGT | 1.01 ± 0.016 |
| TATTTTCCTG | 1.15 ± 0.18 |
| TCTGGTTAAA | 0.982 ± 0.013 |
| ACCATAATGG | 1.021 ± 0.01 |
| CGCAGCGGTT | 1.49 ± 0.041 |
| ACTAGGAATC | 1.04 ± 0.019 |
| ATAGGATGTG | 1.01 ± 0.023 |
| TTAGCTGGTG | 1.07 ± 0.067 |
| CCATGGGGGG | 1.11 ± 0.18 |
| TGGAACGGTT | 1.04 ± 0.047 |
| TATGTTAGAT | 1.002 ± 0.01 |
| TTTATATAAT | 0.984 ± 0.038 |
| GAATTGGCCT | 1.02 ± 0.019 |
| ATCGTGGGGG | 1 ± 0.028 |
| TATTAGTCAG | 1 ± 0.023 |
| TGGAGTGTGG | 0.912 ± 0.087 |
| ATAATGTTTT | 1 ± 0.021 |
| TCATAAGGGA | 0.997 ± 0.028 |
| TCGGGTCCAT | 1 ± 0.026 |
| TTTTGTTTGG | 1.02 ± 0.041 |
| AGTTTATCTG | 1.01 ± 0.04 |
| TTTAATTTTT | 0.988 ± 0.036 |
| AGGTAGTTTA | 1.02 ± 0.045 |

| Sequence | switch fluorescence ratio |
| --- | --- |
| GATAGATGGC | 0.989 ± 0.039 |
| TTTTATAGAC | 1.04 ± 0.026 |
| TGATAATGTT | 0.997 ± 0.014 |
| CATTCTTCGC | 1.15 ± 0.029 |
| TTTGGTACCC | 1.01 ± 0.029 |
| AACCTTAGGA | 1.05 ± 0.017 |
| CATGTCACGG | 1.06 ± 0.039 |
| TAAAAAGGTG | 1.12 ± 0.11 |
| GTGCGCGGCC | 1.01 ± 0.051 |
| CAGGGCAGCG | 1.02 ± 0.04 |
| AGGGGGCAGA | 1.03 ± 0.05 |
| GAGGGGGAAA | 1.02 ± 0.031 |
| TTCGTAGACT | 0.991 ± 0.017 |
| GGGTGTGCGG | 0.972 ± 0.038 |
| CTAAAAGTGT | 0.989 ± 0.034 |
| ACTATGGTTA | 0.997 ± 0.055 |
| GGGGTTCTTA | 1.02 ± 0.091 |
| GGTTGAAGGG | 1.014 ± 0.0091 |
| CGGGTGGCAG | 1.01 ± 0.061 |
